From patent US20260242419A1, “A CYCLIC PEPTIDE FOR TRAPPING INTERLEUKIN-1 BETA” (Merck Sharp & Dohme LLC, priority 2023, published 2026)
Starred links: 1 amine or outer side, 2 acyl side, 3 side chain; linkers in the order of their positions; H or OH if unused. Non-standard residues stand in square brackets, D forms with d. SbOHPhe4CONH2 = (2S,3S)-2-amino-3-(4-carbamoylphenyl)-3-hydroxypropanoic acid, NC(=O)c1ccc([C@H](O[*:3])[C@H](N[*:1])C(=O)[*:2])cc1; TyrEtNAc = (2S)-3-[4-(2-acetamidoethoxy)phenyl]-2-amino-propanoic acid, CC(=O)NCCOc1ccc(C[C@H](N[*:1])C(=O)[*:2])cc1; alThrOEt = O-ethyl-L-allothreonine, CCO[C@@H](C)[C@H](N[*:1])C(=O)[*:2]; ThrOEt = O-ethyl-L-threonine, CCO[C@H](C)[C@H](N[*:1])C(=O)[*:2]; dPro(4R-(4-pyridylmethyl)) = O=C(O)[C@H]1C[C@@H](Cc2ccncc2)CN1; Trp(βS-Me,4-F) = C[C@@H](c1c[nH]c2cccc(F)c12)[C@H](N)C(=O)O; Bip(4'-CONH2) = NC(=O)c1ccc(-c2ccc(C[C@H](N)C(=O)O)cc2)cc1; Ala(1-bicyclo(1.1.1)pentyl) = N[C@@H](CC12CC(C1)C2)C(=O)O; dPro(3S-(4-F-Bn)) = O=C(O)[C@@H]1NCC[C@@H]1Cc1ccc(F)cc1; Ala(pyrimidin-5-yl) = N[C@@H](Cc1cncnc1)C(=O)O; Phe(4-CONH2) = NC(=O)c1ccc(C[C@H](N)C(=O)O)cc1; Phe(4-COOH) = N[C@@H](Cc1ccc(C(=O)O)cc1)C(=O)O; Pro(cis-4-F) = O=C(O)[C@@H]1C[C@H](F)CN1; Ala(4-THP) = N[C@@H](CC1CCOCC1)C(=O)O; d(αMeD) = C[C@@](N)(CC(=O)O)C(=O)O; 4Pal = N[C@@H](Cc1ccncc1)C(=O)O; d(αMeS) = C[C@@](N)(CO)C(=O)O; NMeDab = CN[C@@H](CCN)C(=O)O; Dab = NCC[C@H](N)C(=O)O; Aib = CC(C)(N)C(=O)O

B1: SEQ ID NO 374 (peptide)
peptide: cyclo([TyrEtNAc][Ala(1-bicyclo(1.1.1)pentyl)][Phe(4-COOH)]G[Pro(cis-4-F)][Trp(βS-Me,4-F)][Aib]SW[d(αMeD)][Ala(4-THP)]Q[Dab]G[dPro(4R-(4-pyridylmethyl))])
SMILES: CC(=O)NCCOc1ccc(C[C@@H]2NC(=O)[C@H]3C[C@@H](Cc4ccncc4)CN3C(=O)CNC(=O)[C@H](CCN)NC(=O)[C@H](CCC(N)=O)NC(=O)[C@H](CC3CCOCC3)NC(=O)[C@@](C)(CC(=O)O)NC(=O)[C@H](Cc3c[nH]c4ccccc34)NC(=O)[C@H](CO)NC(=O)C(C)(C)NC(=O)[C@H]([C@@H](C)c3c[nH]c4cccc(F)c34)NC(=O)[C@@H]3C[C@H](F)CN3C(=O)CNC(=O)[C@H](Cc3ccc(C(=O)O)cc3)NC(=O)[C@H](CC34CC(C3)C4)NC2=O)cc1
B2: SEQ ID NO 373 (peptide)
peptide: cyclo([TyrEtNAc][Ala(1-bicyclo(1.1.1)pentyl)][Phe(4-CONH2)]G[Pro(cis-4-F)][Trp(βS-Me,4-F)][Aib]SW[d(αMeD)][Ala(4-THP)]Q[Dab]G[dPro(3S-(4-F-Bn))])
SMILES: CC(=O)NCCOc1ccc(C[C@@H]2NC(=O)[C@H]3[C@@H](Cc4ccc(F)cc4)CCN3C(=O)CNC(=O)[C@H](CCN)NC(=O)[C@H](CCC(N)=O)NC(=O)[C@H](CC3CCOCC3)NC(=O)[C@@](C)(CC(=O)O)NC(=O)[C@H](Cc3c[nH]c4ccccc34)NC(=O)[C@H](CO)NC(=O)C(C)(C)NC(=O)[C@H]([C@@H](C)c3c[nH]c4cccc(F)c34)NC(=O)[C@@H]3C[C@H](F)CN3C(=O)CNC(=O)[C@H](Cc3ccc(C(N)=O)cc3)NC(=O)[C@H](CC34CC(C3)C4)NC2=O)cc1
B3: SEQ ID NO 379 (peptide)
peptide: cyclo([Bip(4'-CONH2)][4Pal][Phe(4-COOH)]G[Pro(cis-4-F)][Trp(βS-Me,4-F)][Aib]SW[d(αMeD)][Ala(pyrimidin-5-yl)]Q[Dab]G[dPro(3S-(4-F-Bn))])
SMILES: C[C@@H](c1c[nH]c2cccc(F)c12)[C@@H]1NC(=O)[C@@H]2C[C@H](F)CN2C(=O)CNC(=O)[C@H](Cc2ccc(C(=O)O)cc2)NC(=O)[C@H](Cc2ccncc2)NC(=O)[C@H](Cc2ccc(-c3ccc(C(N)=O)cc3)cc2)NC(=O)[C@H]2[C@@H](Cc3ccc(F)cc3)CCN2C(=O)CNC(=O)[C@H](CCN)NC(=O)[C@H](CCC(N)=O)NC(=O)[C@H](Cc2cncnc2)NC(=O)[C@@](C)(CC(=O)O)NC(=O)[C@H](Cc2c[nH]c3ccccc23)NC(=O)[C@H](CO)NC(=O)C(C)(C)NC1=O
B4: SEQ ID NO 380 (peptide)
peptide: cyclo([Bip(4'-CONH2)][4Pal][Phe(4-CONH2)]G[Pro(cis-4-F)][Trp(βS-Me,4-F)][Aib]SW[d(αMeD)][Ala(pyrimidin-5-yl)]Q[Dab]G[dPro(3S-(4-F-Bn))])
SMILES: C[C@@H](c1c[nH]c2cccc(F)c12)[C@@H]1NC(=O)[C@@H]2C[C@H](F)CN2C(=O)CNC(=O)[C@H](Cc2ccc(C(N)=O)cc2)NC(=O)[C@H](Cc2ccncc2)NC(=O)[C@H](Cc2ccc(-c3ccc(C(N)=O)cc3)cc2)NC(=O)[C@H]2[C@@H](Cc3ccc(F)cc3)CCN2C(=O)CNC(=O)[C@H](CCN)NC(=O)[C@H](CCC(N)=O)NC(=O)[C@H](Cc2cncnc2)NC(=O)[C@@](C)(CC(=O)O)NC(=O)[C@H](Cc2c[nH]c3ccccc23)NC(=O)[C@H](CO)NC(=O)C(C)(C)NC1=O
B5: SEQ ID NO 383 (peptide)
peptide: cyclo([TyrEtNAc][4Pal][SbOHPhe4CONH2]G[Pro(cis-4-F)][Trp(βS-Me,4-F)][Aib]SW[Aib][Ala(pyrimidin-5-yl)]Q[NMeDab]G[dPro(4R-(4-pyridylmethyl))])
SMILES: CC(=O)NCCOc1ccc(C[C@@H]2NC(=O)[C@H]3C[C@@H](Cc4ccncc4)CN3C(=O)CNC(=O)[C@H](CCN)N(C)C(=O)[C@H](CCC(N)=O)NC(=O)[C@H](Cc3cncnc3)NC(=O)C(C)(C)NC(=O)[C@H](Cc3c[nH]c4ccccc34)NC(=O)[C@H](CO)NC(=O)C(C)(C)NC(=O)[C@H]([C@@H](C)c3c[nH]c4cccc(F)c34)NC(=O)[C@@H]3C[C@H](F)CN3C(=O)CNC(=O)[C@H]([C@@H](O)c3ccc(C(N)=O)cc3)NC(=O)[C@H](Cc3ccncc3)NC2=O)cc1
B6: SEQ ID NO 372 (peptide)
peptide: cyclo([TyrEtNAc][4Pal][Phe(4-COOH)]G[Pro(cis-4-F)][Trp(βS-Me,4-F)][Aib]SW[d(αMeD)][Ala(4-THP)]Q[Dab]G[dPro(3S-(4-F-Bn))])
SMILES: CC(=O)NCCOc1ccc(C[C@@H]2NC(=O)[C@H]3[C@@H](Cc4ccc(F)cc4)CCN3C(=O)CNC(=O)[C@H](CCN)NC(=O)[C@H](CCC(N)=O)NC(=O)[C@H](CC3CCOCC3)NC(=O)[C@@](C)(CC(=O)O)NC(=O)[C@H](Cc3c[nH]c4ccccc34)NC(=O)[C@H](CO)NC(=O)C(C)(C)NC(=O)[C@H]([C@@H](C)c3c[nH]c4cccc(F)c34)NC(=O)[C@@H]3C[C@H](F)CN3C(=O)CNC(=O)[C@H](Cc3ccc(C(=O)O)cc3)NC(=O)[C@H](Cc3ccncc3)NC2=O)cc1
B7: SEQ ID NO 378 (peptide)
peptide: cyclo([TyrEtNAc][4Pal][Phe(4-CONH2)]G[Pro(cis-4-F)][Trp(βS-Me,4-F)][Aib]SW[d(αMeS)][Ala(4-THP)]Q[Dab]G[dPro(4R-(4-pyridylmethyl))])
SMILES: CC(=O)NCCOc1ccc(C[C@@H]2NC(=O)[C@H]3C[C@@H](Cc4ccncc4)CN3C(=O)CNC(=O)[C@H](CCN)NC(=O)[C@H](CCC(N)=O)NC(=O)[C@H](CC3CCOCC3)NC(=O)[C@@](C)(CO)NC(=O)[C@H](Cc3c[nH]c4ccccc34)NC(=O)[C@H](CO)NC(=O)C(C)(C)NC(=O)[C@H]([C@@H](C)c3c[nH]c4cccc(F)c34)NC(=O)[C@@H]3C[C@H](F)CN3C(=O)CNC(=O)[C@H](Cc3ccc(C(N)=O)cc3)NC(=O)[C@H](Cc3ccncc3)NC2=O)cc1
B8: SEQ ID NO 375 (peptide)
peptide: cyclo([TyrEtNAc][Ala(1-bicyclo(1.1.1)pentyl)][Phe(4-COOH)]G[Pro(cis-4-F)][Trp(βS-Me,4-F)][Aib]SW[d(αMeS)][Ala(4-THP)]Q[Dab]G[dPro(4R-(4-pyridylmethyl))])
SMILES: CC(=O)NCCOc1ccc(C[C@@H]2NC(=O)[C@H]3C[C@@H](Cc4ccncc4)CN3C(=O)CNC(=O)[C@H](CCN)NC(=O)[C@H](CCC(N)=O)NC(=O)[C@H](CC3CCOCC3)NC(=O)[C@@](C)(CO)NC(=O)[C@H](Cc3c[nH]c4ccccc34)NC(=O)[C@H](CO)NC(=O)C(C)(C)NC(=O)[C@H]([C@@H](C)c3c[nH]c4cccc(F)c34)NC(=O)[C@@H]3C[C@H](F)CN3C(=O)CNC(=O)[C@H](Cc3ccc(C(=O)O)cc3)NC(=O)[C@H](CC34CC(C3)C4)NC2=O)cc1
B9: SEQ ID NO 377 (peptide)
peptide: cyclo([TyrEtNAc][4Pal][Phe(4-CONH2)]G[Pro(cis-4-F)][Trp(βS-Me,4-F)][Aib]SW[d(αMeD)][Ala(4-THP)]Q[Dab]G[dPro(4R-(4-pyridylmethyl))])
SMILES: CC(=O)NCCOc1ccc(C[C@@H]2NC(=O)[C@H]3C[C@@H](Cc4ccncc4)CN3C(=O)CNC(=O)[C@H](CCN)NC(=O)[C@H](CCC(N)=O)NC(=O)[C@H](CC3CCOCC3)NC(=O)[C@@](C)(CC(=O)O)NC(=O)[C@H](Cc3c[nH]c4ccccc34)NC(=O)[C@H](CO)NC(=O)C(C)(C)NC(=O)[C@H]([C@@H](C)c3c[nH]c4cccc(F)c34)NC(=O)[C@@H]3C[C@H](F)CN3C(=O)CNC(=O)[C@H](Cc3ccc(C(N)=O)cc3)NC(=O)[C@H](Cc3ccncc3)NC2=O)cc1
B10: SEQ ID NO 376 (peptide)
peptide: cyclo([TyrEtNAc][Ala(1-bicyclo(1.1.1)pentyl)][Phe(4-CONH2)]G[Pro(cis-4-F)][Trp(βS-Me,4-F)][Aib]SW[d(αMeD)][Ala(4-THP)]Q[Dab]G[dPro(4R-(4-pyridylmethyl))])
SMILES: CC(=O)NCCOc1ccc(C[C@@H]2NC(=O)[C@H]3C[C@@H](Cc4ccncc4)CN3C(=O)CNC(=O)[C@H](CCN)NC(=O)[C@H](CCC(N)=O)NC(=O)[C@H](CC3CCOCC3)NC(=O)[C@@](C)(CC(=O)O)NC(=O)[C@H](Cc3c[nH]c4ccccc34)NC(=O)[C@H](CO)NC(=O)C(C)(C)NC(=O)[C@H]([C@@H](C)c3c[nH]c4cccc(F)c34)NC(=O)[C@@H]3C[C@H](F)CN3C(=O)CNC(=O)[C@H](Cc3ccc(C(N)=O)cc3)NC(=O)[C@H](CC34CC(C3)C4)NC2=O)cc1
B11: SEQ ID NO 382 (peptide)
peptide: cyclo([TyrEtNAc][4Pal][Phe(4-CONH2)]G[Pro(cis-4-F)][Trp(βS-Me,4-F)][Aib]SW[Aib][ThrOEt]Q[NMeDab]G[dPro(4R-(4-pyridylmethyl))])
SMILES: CCO[C@H](C)[C@@H]1NC(=O)C(C)(C)NC(=O)[C@H](Cc2c[nH]c3ccccc23)NC(=O)[C@H](CO)NC(=O)C(C)(C)NC(=O)[C@H]([C@@H](C)c2c[nH]c3cccc(F)c23)NC(=O)[C@@H]2C[C@H](F)CN2C(=O)CNC(=O)[C@H](Cc2ccc(C(N)=O)cc2)NC(=O)[C@H](Cc2ccncc2)NC(=O)[C@H](Cc2ccc(OCCNC(C)=O)cc2)NC(=O)[C@H]2C[C@@H](Cc3ccncc3)CN2C(=O)CNC(=O)[C@H](CCN)N(C)C(=O)[C@H](CCC(N)=O)NC1=O
B12: SEQ ID NO 381 (peptide)
peptide: cyclo([TyrEtNAc][4Pal][Phe(4-CONH2)]G[Pro(cis-4-F)][Trp(βS-Me,4-F)][Aib]SW[Aib][alThrOEt]Q[NMeDab]G[dPro(4R-(4-pyridylmethyl))])
SMILES: CCO[C@@H](C)[C@@H]1NC(=O)C(C)(C)NC(=O)[C@H](Cc2c[nH]c3ccccc23)NC(=O)[C@H](CO)NC(=O)C(C)(C)NC(=O)[C@H]([C@@H](C)c2c[nH]c3cccc(F)c23)NC(=O)[C@@H]2C[C@H](F)CN2C(=O)CNC(=O)[C@H](Cc2ccc(C(N)=O)cc2)NC(=O)[C@H](Cc2ccncc2)NC(=O)[C@H](Cc2ccc(OCCNC(C)=O)cc2)NC(=O)[C@H]2C[C@@H](Cc3ccncc3)CN2C(=O)CNC(=O)[C@H](CCN)N(C)C(=O)[C@H](CCC(N)=O)NC1=O

Each binder was assayed against Recombinant human IL-1β (BioLegend 579404) (human, UniProt P01584 117-269) (assay: cell-based or functional assay).

| MRC5 IC50 [nM] | Binder |
| --- | --- |
| 0.017 | B1 |
| 0.012 | B2 |
| 0.016 | B3 |
| 0.018 | B4 |
| 0.042 | B5 |
| 0.009 | B6 |
| 0.043 | B7 |
| 0.025 | B8 |
| 0.04 | B9 |
| 0.048 | B10 |
| 0.048 | B11 |
| 0.041 | B12 |
